# Experimental data as given in patent US20260015418A1 (ABL BIO, published 2026).
# Residue numbers refer to the chain shown, from its start. Names and notes keep the numbering of the source. Values joined by “and” are separate entries in the source; they are usually repeats but may differ in a detail not shown here. Equal values may be shown once.
# T1: human B7-H3 on CHO-huROR1-huB7-H3 cells (human, UniProt Q5ZPR3 29-534)
# T1 construct: whole, on cells; also called cell surface B7-H3
# T1 sequence (looked up): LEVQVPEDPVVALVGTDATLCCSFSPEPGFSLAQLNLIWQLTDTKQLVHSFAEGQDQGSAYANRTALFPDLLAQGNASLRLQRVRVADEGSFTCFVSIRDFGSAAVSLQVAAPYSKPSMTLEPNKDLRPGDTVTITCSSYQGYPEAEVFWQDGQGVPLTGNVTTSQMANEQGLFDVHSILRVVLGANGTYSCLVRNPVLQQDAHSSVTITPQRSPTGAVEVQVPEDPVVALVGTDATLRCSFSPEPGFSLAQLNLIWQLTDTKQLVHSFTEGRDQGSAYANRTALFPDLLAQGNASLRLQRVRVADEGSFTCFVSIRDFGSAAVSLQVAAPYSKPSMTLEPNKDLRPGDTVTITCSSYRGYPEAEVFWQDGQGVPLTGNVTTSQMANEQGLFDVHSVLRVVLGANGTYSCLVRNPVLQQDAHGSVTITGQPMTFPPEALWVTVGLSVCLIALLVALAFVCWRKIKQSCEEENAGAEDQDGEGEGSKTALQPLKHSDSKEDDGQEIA
# B1: BA6 antibody (WT) (antibody, V domains shown)
# VH: EVQLLESGGGLVQPGGSLRLSCAASGFTFSNYDMSWVRQAPGKGLEWVSAIYHSGSSKYYADSVKGRFTISRDNSKNTLYLQMNSLRAEDTAVYYCARGGNGAWDTGFDYWGQGTLVTVSS
# VL: QSVLTQPPSASGTPGQRVTISCSGSSSNIGSNDVSWYQQLPGTAPKLLIYYDNNRPSGVPDRFSGSKSGTSASLAISGLRSEDEADYYCGAWDDSLSGYVFGGGTKLTVL
# notes: Anti-ROR1 antibody from WO2019-225992 A1, said to be based on IgG1; only the variable domains are tied to the monospecific IgG; also called BA6 IgG (WT); parental clone
# B2: BA6M11 anti-ROR1 antibody (IgG) (antibody, V domains shown)
# VH: B1 VH with N101S
# VL: B1 VL with D52E
# notes: IgG form; also called BA6 IgG (M11); double mutant D51E (LC)+N97S (HC)
# B3: M1 (PTM mutant of BA6 IgG) (antibody, V domains shown)
# VH: B1 VH
# VL: B1 VL with D52A
# notes: IgG of BA6 with one mutation
# B4: M2 (PTM mutant of BA6 IgG) (antibody, V domains shown)
# VH: B1 VH
# VL: B1 VL with D52T
# notes: IgG of BA6 with one mutation; Kabat L51
# B5: M3 (PTM mutant of BA6 IgG) (antibody, V domains shown)
# VH: B1 VH
# VL: B1 VL with D52E
# notes: as for B4
# B6: M4 (PTM mutant of BA6 IgG) (antibody, V domains shown)
# VH: B1 VH
# VL: B1 VL with D52S
# notes: as for B4
# B7: M5 (PTM mutant of BA6 IgG) (antibody, V domains shown)
# VH: B1 VH with G102Y
# VL: B1 VL
# notes: IgG of BA6 with one CDRH3 mutation
# B8: M6 (PTM mutant of BA6 IgG) (antibody, V domains shown)
# VH: B1 VH with G102V
# VL: B1 VL
# notes: as for B7
# B9: M7 (PTM mutant of BA6 IgG) (antibody, V domains shown)
# VH: B1 VH with G102R
# VL: B1 VL
# notes: as for B7
# B10: M8 (PTM mutant of BA6 IgG) (antibody, V domains shown)
# VH: B1 VH with N101G
# VL: B1 VL
# notes: IgG of BA6 with one CDRH3 mutation; Kabat H97 (same column as M9)
# B11: M9 (PTM mutant of BA6 IgG) (antibody, V domains shown)
# VH: B1 VH with N101S
# VL: B1 VL
# notes: IgG of BA6 with one CDRH3 mutation; Kabat H97
# B12: M10 (PTM mutant of BA6 IgG) (antibody, V domains shown)
# VH: B1 VH with N101Y
# VL: B1 VL
# notes: as for B10
# B13: BA6 IgG(NA) (antibody, V domains shown)
# VH: B1 VH
# VL: QSVLTQPPSASGTPGQRVTISCSGSSSNIGSNDVSWYQQLPGTAPKLLIYYDNNRPSGVPDRFSGSKSGTSASLAISGLRSEDEADYYCGAWDDSLSGYVFGGGTKLTVLG
# B14: B5 (antibody, V domains shown)
# VH: EVQLLESGGGLVQPGGSLRLSCAASGFTFSDYAMSWVRQAPGKGLEWVSSISSGSGSIYYADSVKGRFTISRDNSKNTLYLQMNSLRAEDTAVYYCAKNLIPLDYWGQGTLVTVSS
# VL: B1 VL with D33A, D52N, N53S, N54H, A91S, D94A, S97N, G98A
# notes: also called anti-B7-H3 monospecific antibody B5; anti-B7-H3 antibody clone B5 (WO2019-226017 A1)
# Assays:
# [1] = target: T2, human ROR1 protein (ROR1-His; Sino Biological, Catalog #13968-H08H) (human, UniProt Q01973 30-406); assay: ELISA, plate coated with ROR1-His (1 ug/ml), bound antibody detected with HRP-conjugated anti-Fab polyclonal antibody, OD at 450 nm; lower graph and table
# T2 construct: extracellular domain; Bought protein; also called human recombinant ROR1 protein
# Method: (§1) The binding affinity of the anti-ROR1 antibody-antigen was evaluated using an ELISA-based solution binding assay. Specifically, 96-well microtiter plates (Nunc-Immuno Plates, NUNC) were coated with ROR1 protein (ROR1-His; sino biological, Catalog #13968-H08H) at a concentration of 1 μg/ml in PBS solution at 4° C. for 16 hours, and non-specific binding sites were blocked with 1% (v/v) BSA (bovine serum albumin) for 2 hours.
# (§2) Subsequently, on the 96-well microtiter plates, anti-ROR1 antibodies at concentrations stated in FIGS. 1a to 1c were added to the microtiter plates, and their binding capabilities were analyzed by ELISA as follows. Specifically, after incubating at 37° C. for 2 hours, the plates were washed five times with PBS containing 0.05% (v/v) Tween 20, then the HRP-conjugated Fab polyclonal antibody reagent (Pierce, Catalog #31414) was diluted at a 1:30,000 ratio and added to the washed microtiter plates, then reacted for 1 hour at 37° C., then detected the bound anti-ROR1 antibodies. After reaction, the color was developed using TMB (tetramethylbenzidine, Sigma, T0440). The enzymatic reaction was stopped with 0.5 mol/L sulfuric acid, and the absorbance was read at 450 nm and 650 nm using a microplate reader (Molecular Devices).
# [2] = target: T2, human ROR1 protein (ROR1-His; Sino …); assay: ELISA, plate coated with ROR1-His (1 ug/ml), bound antibody detected with HRP-conjugated anti-Fab polyclonal antibody, OD at 450 nm; upper graph and table
# Method: as §1, §2
# [3] = target: T2, human ROR1 protein (ROR1-His; Sino …); assay: ELISA, plate coated with ROR1-His (1 ug/ml), bound antibody detected with HRP-conjugated anti-Fab polyclonal antibody, OD at 450 nm; lower graph and table; remark: listed apart in the source
# Method: as §1, §2
# [4] = target: T2, human ROR1 protein (ROR1-His; Sino …); assay: SACE ELISA on human ROR1-His; antibody stored 2 weeks at 37°C
# Method: as §1
# as §2, with “Devices). […]” for “Devices).”
# [5] = target: T2, human ROR1 protein (ROR1-His; Sino …); assay: SACE ELISA on human ROR1-His; antibody stored 2 weeks at 4°C; BA6 IgG (WT), stored at 4° C.
# Method: as §1
# as §2, with “Devices). […]” for “Devices).”
# [6] = target: T2, human ROR1 protein (ROR1-His; Sino …); assay: ELISA, plate coated with ROR1-His (1 ug/ml), bound antibody detected with HRP-conjugated anti-Fab polyclonal antibody, OD at 450 nm
# Method: as §1, §2
# [7] = target: T2, human ROR1 protein (ROR1-His; Sino …); assay: SACE ELISA on human ROR1-His
# Method: as §1
# as §2, with “Devices). […]” for “Devices).”
# [8] = target: T2, human ROR1 protein (ROR1-His; Sino …); assay: ELISA, plate coated with ROR1-His (1 ug/ml), bound antibody detected with HRP-conjugated anti-Fab polyclonal antibody, OD at 450 nm; upper graph and table; remark: listed apart in the source
# Method: as §1, §2
# [9] = target: T2, human ROR1 protein (ROR1-His; Sino …); assay: SACE ELISA on human ROR1-His; antibody stored 2 weeks at 4°C
# Method: as §1
# as §2, with “Devices). […]” for “Devices).”
# [10] = target: T3, human ROR1 on cells (NCI-N87, CHOK1-hROR1, AGS, CHO-huROR1-huB7-H3) (human, UniProt Q01973 30-937); assay: flow cytometry on CHO-huROR1-huB7-H3 cells, FITC anti-human IgG, MFI over secondary antibody only
# T3 construct: whole, on cells; also called cell surface ROR1
# From the text: (§3) To evaluate the cell-binding ability of the anti-ROR1/B7-H3 bispecific antibody, cells expressing both ROR1 and B7-H3 were used to compare the cell-binding ability of the bispecific antibody with that of the monospecific antibodies.
# (§4) As a cell line for the comparison of cell-binding ability, CHO-huROR1-huB7-H3 cell line (obtained by transfecting the ROR1-CHO recombinant cell line (BPS Bioscience) with the human B7-H3 gene (Origene) and selecting for the desired gene-inserted single cells using G418), which stably transfected the human ROR1 and human B7-H3 gene to artificially overexpress both human ROR1 and human B7-H3 proteins were used, and analysis was performed using a flow cytometer (LSRFortessa X-20, BD Biosciences). Specifically, after dissociating and washing the overexpressing cell line with PBS, the cell number was counted, and the cells were seeded at a density of 2×10⁵ cells per well into a V-bottom 96-well plate (96 Well Plate-RV, Bioneer, 910D09). Antibodies diluted 4-fold starting from 100 nM in 1% BSA solution were added at 100 μL per well to the centrifuged cells and incubated at 4° C. for 1 hour. […] After the reaction, the cells were washed twice with the same buffer, resuspended in 100 μL of PBS, and analyzed using a FACS instrument. A total of 10,000 cells were detected per measurement, and the data was analyzed using FlowJo software. […]
# [11] = target: T2, human ROR1 protein (ROR1-His; Sino …); assay: ELISA, plate coated with ROR1-His (1 ug/ml), bound antibody detected with HRP-conjugated anti-Fab polyclonal antibody, OD at 450 nm; upper table (the graph's legend names the third curve M8_N97G)
# Method: as §1, §2
# [12] = target: T1, human B7-H3 on CHO-huROR1-huB7-H3 cells; assay: flow cytometry on CHO-huROR1-huB7-H3 cells, FITC anti-human IgG, MFI over secondary antibody only
# From the text: as §3, §4
binder,measurement,setting,value
B1,EC50,[1],0.293 nM
same,EC50,[2],0.707 nM
same,EC50,[3],0.215 nM
same,EC50,[4],0.261 nM
same,EC50,[5],0.217 nM
same,EC50,[6],0.293 nM
same,"Ratio (EC50, 4°C sample against 37°C sample)",[7],83.1%
same,EC50,[8],1 nM
B2,EC50,[9],0.166 nM
same,EC50,[3],0.144 nM and 0.133 nM
same,EC50,[4],0.129 nM
same,"Ratio (EC50, 4°C sample against 37°C sample)",[7],129%
same,EC50 (read off the curve),[10],~700 pM
B3,EC50,[6],0.326 nM
B4,EC50,[6],10.2 nM
B5,EC50,[2],0.478 nM
same,EC50,[3],0.189 nM
same,EC50,[6],0.333 nM
same,EC50,[8],0.755 nM
B6,EC50,[6],10.2 nM
B7,EC50,[6],3.27 nM
B8,EC50,[6],0.955 nM
B9,EC50,[1],12.5 nM
B10,EC50,[2],7.56 nM
B11,EC50,[11],1.08 nM
B12,EC50,[2],2.76 nM
B13,EC50,[1],0.299 nM
B14,EC50 (read off the curve),[12],~1000 pM
